Results reported in the supplement of paper PMC10065799, “High-throughput profiling of sequence recognition by tyrosine kinases and SH2 domains using bacterial peptide display” (eLife, 2023).

What was measured:
c-Src SH2 = assay: SH2 binding enrichment of the phosphorylated peptide, bacterial display (enrichment ratio); higher = better substrate or ligand; peptides without Tyr show the background
Grb2 SH2 = Grb2 SH2 (UniProt P62993); assay: as above
SHP2-C SH2 = assay: as above
FGFR3 = FGFR3 (UniProt P22607); assay: phosphorylation enrichment, bacterial display (enrichment ratio); higher = better substrate or ligand; peptides without Tyr show the background
Fes = Fes (UniProt P07332); assay: as above
c-Abl (mouse) = assay: as above
EPHB1 = EPHB1 (UniProt P54762); assay: as above
Jak2 = Jak2 (UniProt O60674); assay: as above
Fyn = Fyn (UniProt P06241); assay: as above
Fer (mouse) = assay: as above
Hck = Hck (UniProt P08631); assay: as above
MERTK = MERTK (UniProt Q12866); assay: as above
c-Src = assay: as above
EPHB2 = EPHB2 (UniProt P29323); assay: as above
AncSZ = assay: as above
FGFR1 = FGFR1 (UniProt P11362); assay: as above
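Wherever SH2 binding enrichment of the phosphorylated peptide, bacterial display is given: peptide library displayed on the E. coli surface as eCPX fusions, selected cells deep-sequenced, score is each peptide's frequency after selection divided by its frequency in the input.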
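Wherever phosphorylation enrichment, bacterial display is given: 11-residue human phosphosite peptides and single-mutation variants displayed on the E. coli surface, counted by deep sequencing, each peptide's frequency after selection divided by its frequency in the unselected input library; frequency after pTyr selection over input frequency; kinase dosed for 20-30% of maximal phosphorylation in three min.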

Grb2 SH2, sequence (P62993 whole entry, looked up): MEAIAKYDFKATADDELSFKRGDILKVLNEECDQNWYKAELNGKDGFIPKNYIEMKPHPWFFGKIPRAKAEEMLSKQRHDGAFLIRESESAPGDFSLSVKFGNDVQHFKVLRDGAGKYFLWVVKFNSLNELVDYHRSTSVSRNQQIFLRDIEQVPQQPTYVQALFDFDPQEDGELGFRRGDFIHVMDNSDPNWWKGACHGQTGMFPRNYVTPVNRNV
EPHB1, sequence (P54762 whole entry, looked up): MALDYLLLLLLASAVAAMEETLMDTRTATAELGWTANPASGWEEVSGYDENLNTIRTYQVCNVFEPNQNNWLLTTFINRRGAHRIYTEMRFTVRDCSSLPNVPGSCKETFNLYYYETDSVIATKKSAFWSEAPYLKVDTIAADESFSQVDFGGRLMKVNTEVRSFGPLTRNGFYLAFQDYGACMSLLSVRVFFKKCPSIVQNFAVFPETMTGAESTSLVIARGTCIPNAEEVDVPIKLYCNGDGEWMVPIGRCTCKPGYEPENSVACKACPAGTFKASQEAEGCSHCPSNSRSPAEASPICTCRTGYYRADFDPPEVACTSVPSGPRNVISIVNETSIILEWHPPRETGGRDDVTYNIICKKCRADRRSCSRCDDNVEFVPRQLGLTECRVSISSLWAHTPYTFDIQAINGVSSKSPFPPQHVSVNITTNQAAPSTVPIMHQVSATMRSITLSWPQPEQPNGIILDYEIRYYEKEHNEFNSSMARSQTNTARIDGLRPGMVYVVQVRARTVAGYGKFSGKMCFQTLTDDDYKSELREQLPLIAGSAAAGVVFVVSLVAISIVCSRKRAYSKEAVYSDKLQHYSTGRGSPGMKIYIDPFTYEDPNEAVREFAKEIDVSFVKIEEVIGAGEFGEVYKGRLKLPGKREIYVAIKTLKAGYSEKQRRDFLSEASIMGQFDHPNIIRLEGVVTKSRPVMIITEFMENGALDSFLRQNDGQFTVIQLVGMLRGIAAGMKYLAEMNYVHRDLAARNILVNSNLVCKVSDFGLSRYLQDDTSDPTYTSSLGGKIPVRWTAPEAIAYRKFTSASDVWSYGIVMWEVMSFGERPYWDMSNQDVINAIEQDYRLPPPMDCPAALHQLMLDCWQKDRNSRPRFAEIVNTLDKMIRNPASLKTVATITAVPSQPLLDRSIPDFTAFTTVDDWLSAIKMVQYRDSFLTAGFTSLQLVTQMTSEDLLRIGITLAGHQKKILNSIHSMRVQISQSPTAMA
FGFR1, sequence (P11362 whole entry, looked up, the tested form may be a part): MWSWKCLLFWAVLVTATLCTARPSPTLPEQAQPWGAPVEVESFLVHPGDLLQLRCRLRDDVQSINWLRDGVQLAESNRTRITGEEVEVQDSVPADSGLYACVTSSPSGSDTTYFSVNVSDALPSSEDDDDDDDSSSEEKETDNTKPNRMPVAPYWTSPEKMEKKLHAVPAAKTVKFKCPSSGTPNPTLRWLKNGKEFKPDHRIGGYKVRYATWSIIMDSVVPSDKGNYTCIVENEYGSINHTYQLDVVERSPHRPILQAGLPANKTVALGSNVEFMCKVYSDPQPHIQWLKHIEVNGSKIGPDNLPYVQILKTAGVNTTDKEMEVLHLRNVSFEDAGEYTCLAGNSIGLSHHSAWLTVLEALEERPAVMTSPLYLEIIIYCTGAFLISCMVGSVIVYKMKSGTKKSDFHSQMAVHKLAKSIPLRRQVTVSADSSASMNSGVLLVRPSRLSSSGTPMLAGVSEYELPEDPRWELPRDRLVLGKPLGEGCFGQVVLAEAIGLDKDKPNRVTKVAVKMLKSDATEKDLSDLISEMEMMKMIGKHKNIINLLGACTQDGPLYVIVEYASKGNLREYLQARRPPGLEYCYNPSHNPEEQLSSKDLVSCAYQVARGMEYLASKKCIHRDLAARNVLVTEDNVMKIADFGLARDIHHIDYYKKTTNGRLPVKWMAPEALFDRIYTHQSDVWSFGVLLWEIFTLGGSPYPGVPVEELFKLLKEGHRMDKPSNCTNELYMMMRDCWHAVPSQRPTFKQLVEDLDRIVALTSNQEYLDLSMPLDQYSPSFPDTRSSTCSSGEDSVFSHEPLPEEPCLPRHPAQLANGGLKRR
MERTK, sequence (Q12866 whole entry, looked up): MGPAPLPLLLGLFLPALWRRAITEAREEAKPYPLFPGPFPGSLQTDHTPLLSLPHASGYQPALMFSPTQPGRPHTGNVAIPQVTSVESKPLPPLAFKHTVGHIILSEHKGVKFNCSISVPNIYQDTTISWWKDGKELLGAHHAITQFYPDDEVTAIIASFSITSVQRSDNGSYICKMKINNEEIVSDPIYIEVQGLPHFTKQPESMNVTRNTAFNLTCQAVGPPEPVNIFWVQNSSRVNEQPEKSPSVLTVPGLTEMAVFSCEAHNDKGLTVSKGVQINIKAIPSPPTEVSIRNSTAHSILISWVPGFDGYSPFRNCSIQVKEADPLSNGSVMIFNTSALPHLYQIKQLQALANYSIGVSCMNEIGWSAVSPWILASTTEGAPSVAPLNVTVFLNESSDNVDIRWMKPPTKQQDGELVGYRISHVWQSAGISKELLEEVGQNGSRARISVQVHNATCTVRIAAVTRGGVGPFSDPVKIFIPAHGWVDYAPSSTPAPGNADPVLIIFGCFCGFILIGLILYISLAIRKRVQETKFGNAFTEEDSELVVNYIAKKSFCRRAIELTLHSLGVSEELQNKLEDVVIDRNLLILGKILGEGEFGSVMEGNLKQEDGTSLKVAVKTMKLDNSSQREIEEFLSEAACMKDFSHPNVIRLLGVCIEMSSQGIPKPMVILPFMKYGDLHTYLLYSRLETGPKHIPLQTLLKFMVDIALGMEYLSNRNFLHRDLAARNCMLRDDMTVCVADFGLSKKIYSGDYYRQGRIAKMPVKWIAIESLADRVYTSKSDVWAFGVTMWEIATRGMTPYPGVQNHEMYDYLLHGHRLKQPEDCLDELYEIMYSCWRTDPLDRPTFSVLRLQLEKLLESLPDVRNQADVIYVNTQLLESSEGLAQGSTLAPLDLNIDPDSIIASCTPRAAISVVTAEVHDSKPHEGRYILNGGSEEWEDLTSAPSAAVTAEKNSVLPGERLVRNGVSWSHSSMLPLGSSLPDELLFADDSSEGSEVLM
FGFR3, sequence (P22607 whole entry, looked up): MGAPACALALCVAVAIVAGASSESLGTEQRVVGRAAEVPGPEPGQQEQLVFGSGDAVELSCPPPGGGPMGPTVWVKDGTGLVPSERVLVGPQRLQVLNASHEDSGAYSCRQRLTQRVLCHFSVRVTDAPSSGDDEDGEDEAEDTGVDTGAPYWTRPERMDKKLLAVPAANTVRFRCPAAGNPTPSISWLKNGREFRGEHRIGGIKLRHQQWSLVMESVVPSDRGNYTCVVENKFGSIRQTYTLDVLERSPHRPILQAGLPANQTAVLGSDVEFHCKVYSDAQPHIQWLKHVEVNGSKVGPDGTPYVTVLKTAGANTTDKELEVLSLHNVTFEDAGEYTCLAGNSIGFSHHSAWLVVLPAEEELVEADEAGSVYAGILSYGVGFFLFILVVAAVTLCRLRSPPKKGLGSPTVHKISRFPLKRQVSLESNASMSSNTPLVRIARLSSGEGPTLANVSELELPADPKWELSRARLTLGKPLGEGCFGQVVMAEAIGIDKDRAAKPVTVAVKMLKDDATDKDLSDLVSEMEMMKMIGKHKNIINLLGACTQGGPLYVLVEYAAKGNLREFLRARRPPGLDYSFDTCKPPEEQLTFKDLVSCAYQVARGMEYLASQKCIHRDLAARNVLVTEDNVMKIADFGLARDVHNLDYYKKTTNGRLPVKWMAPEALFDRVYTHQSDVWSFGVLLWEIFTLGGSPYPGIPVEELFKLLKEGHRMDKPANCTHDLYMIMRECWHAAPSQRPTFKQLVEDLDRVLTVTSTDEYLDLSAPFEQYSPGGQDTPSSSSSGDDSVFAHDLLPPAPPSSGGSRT
Fyn, sequence (P06241 whole entry, looked up): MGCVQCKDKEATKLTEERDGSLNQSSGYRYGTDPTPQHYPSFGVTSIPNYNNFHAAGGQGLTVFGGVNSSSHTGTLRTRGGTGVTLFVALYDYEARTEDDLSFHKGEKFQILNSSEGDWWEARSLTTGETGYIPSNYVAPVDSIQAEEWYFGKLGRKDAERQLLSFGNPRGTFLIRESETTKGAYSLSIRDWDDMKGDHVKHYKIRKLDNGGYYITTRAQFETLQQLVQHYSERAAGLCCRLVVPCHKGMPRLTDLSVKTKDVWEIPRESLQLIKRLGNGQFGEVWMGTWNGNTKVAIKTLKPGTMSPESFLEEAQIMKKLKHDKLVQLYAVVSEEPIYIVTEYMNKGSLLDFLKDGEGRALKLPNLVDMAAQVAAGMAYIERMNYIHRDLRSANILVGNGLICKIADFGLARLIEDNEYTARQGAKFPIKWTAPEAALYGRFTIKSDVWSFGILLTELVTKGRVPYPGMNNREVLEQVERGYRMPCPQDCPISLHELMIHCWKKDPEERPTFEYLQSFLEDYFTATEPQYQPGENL
Hck, sequence (P08631 whole entry, looked up): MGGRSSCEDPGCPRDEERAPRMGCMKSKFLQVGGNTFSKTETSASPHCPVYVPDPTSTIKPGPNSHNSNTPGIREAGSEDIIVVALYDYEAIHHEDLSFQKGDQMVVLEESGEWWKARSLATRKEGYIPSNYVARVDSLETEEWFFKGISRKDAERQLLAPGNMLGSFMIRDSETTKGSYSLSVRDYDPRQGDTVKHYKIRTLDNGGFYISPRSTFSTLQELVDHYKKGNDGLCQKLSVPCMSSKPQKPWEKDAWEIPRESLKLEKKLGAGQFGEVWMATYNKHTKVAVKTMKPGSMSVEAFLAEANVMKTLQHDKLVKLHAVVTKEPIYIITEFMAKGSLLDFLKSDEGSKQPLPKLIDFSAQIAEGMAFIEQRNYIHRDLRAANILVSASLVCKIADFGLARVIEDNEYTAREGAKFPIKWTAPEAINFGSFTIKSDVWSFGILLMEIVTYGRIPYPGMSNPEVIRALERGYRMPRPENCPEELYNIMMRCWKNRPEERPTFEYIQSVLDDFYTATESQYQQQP

Sequence | SH2 binding enrichment (c-Src SH2) | SH2 binding enrichment (Grb2 SH2) | SH2 binding enrichment (SHP2-C SH2) | phosphorylation enrichment (FGFR3) | phosphorylation enrichment (Fes) | phosphorylation enrichment (c-Abl (mouse)) | phosphorylation enrichment (EPHB1) | phosphorylation enrichment (Jak2) | phosphorylation enrichment (Fyn) | phosphorylation enrichment (Fer (mouse)) | phosphorylation enrichment (Hck) | phosphorylation enrichment (MERTK) | phosphorylation enrichment (c-Src) | phosphorylation enrichment (EPHB2) | phosphorylation enrichment (AncSZ) | phosphorylation enrichment (FGFR1)
ENFSEYQEISV [HEMGN_Y150_A154S] | 0.617 | 0.827 | 0.749 | 1.53 | 1.39 | 0.965 | 2.45 | 1.14 | 0.594 | 1.42 | 0.987 | 0.659 | 0.873 | 1.46 | 1.59 | 1.89
EICTQYEAMAS [GFAP_Y242_R239C] | 2.84 | 0.989 | 0.804 | 0.683 | 1.15 | 0.71 | 0.65 | 0.777 | 0.576 | 0.829 | 0.708 | 0.55 | 0.601 | 0.614 | 1.23 | 0.517
DASENYFVMDS [TMEM240_Y77_T80M] | 0.598 | 1.01 | 0.767 | 7.01 | 1.1 | 0.677 | 6.62 | 0.952 | 0.392 | 0.732 | 0.457 | 1.92 | 0.569 | 4.43 | 1.91 | 8.76
GKSDPYHATSG [GJA1_Y247] | 0.518 | 0.761 | 0.588 | 0.402 | 0.508 | 0.527 | 0.355 | 0.519 | 0.386 | 0.381 | 0.365 | 0.354 | 0.404 | 0.349 | 0.426 | 0.346
RLGNQHVNVMN [SLC3A1_Y461_Y461H] | 0.429 | 0.987 | 0.762 | 0.691 | 1.09 | 0.947 | 0.694 | 1.09 | 0.627 | 0.504 | 0.505 | 0.53 | 0.717 | 0.612 | 0.793 | 0.567
IALSKYGRVKW [FGF6_Y186_R191W] | 1.33 | 1.26 | 1.89 | 0.357 | 0.985 | 0.748 | 0.316 | 0.56 | 0.306 | 0.413 | 0.438 | 0.365 | 0.437 | 0.329 | 0.603 | 0.387
QMVDMYASSFM [AVPR2_Y124_G122D_YF] | 0.707 | 1.07 | 0.575 | 0.923 | 1.31 | 1.2 | 0.992 | 1.47 | 1.35 | 0.9 | 1.58 | 0.707 | 2.34 | 0.805 | 1.29 | 0.779
PVGDAYKKKGL [NMNAT1_Y55] | 0.626 | 0.831 | 0.673 | 0.624 | 0.976 | 0.574 | 0.501 | 0.787 | 0.522 | 0.609 | 0.559 | 0.874 | 0.493 | 0.924 | 0.677 | 0.651
RHCSGYVLIAM [EFR3A_Y73_R70C] | 1.05 | 1.01 | 1.05 | 0.669 | 0.879 | 0.575 | 0.51 | 0.846 | 0.376 | 0.501 | 0.472 | 0.268 | 0.517 | 0.403 | 0.885 | 0.596
NRDNTYNPVSE [FGA_Y127_R129P] | 0.425 | 0.694 | 0.443 | 0.627 | 0.857 | 0.545 | 0.544 | 0.699 | 0.562 | 0.481 | 0.658 | 0.486 | 0.522 | 0.465 | 0.751 | 0.457
RRVPVYGGRGA [QDPR_Y16_L14P] | 0.527 | 0.852 | 0.774 | 0.627 | 0.836 | 1.28 | 0.573 | 1.36 | 0.626 | 0.626 | 0.702 | 0.779 | 1.15 | 0.512 | 0.969 | 0.762
PGGKIYISPLK [RB1_Y805_N803K] | 0.776 | 0.933 | 1.12 | 0.583 | 0.794 | 1.17 | 0.361 | 0.72 | 0.513 | 0.441 | 0.456 | 0.461 | 0.422 | 0.763 | 0.598 | 0.45
KFLVGYEMLAQ [GALT_Y339_M336L] | 2.72 | 1.01 | 1.06 | 0.661 | 0.977 | 0.578 | 0.434 | 0.747 | 0.386 | 0.395 | 0.416 | 0.323 | 0.378 | 0.434 | 0.701 | 0.408
TRTEAYAVSSF | 1.65 | 0.88 | 0.608 | 0.396 | 0.816 | 0.476 | 0.442 | 0.587 | 0.399 | 0.328 | 0.359 | 0.406 | 0.353 | 0.378 | 0.58 | 0.373
EMFNPYYGLFE [NEDD4L_Y679] | 1.06 | 1.17 | 0.855 | 4.84 | 1.64 | 2.2 | 5.74 | 6.66 | 8.62 | 6.32 | 7.91 | 6.86 | 6.95 | 5.92 | 2.04 | 5.41
QRIYQYIRSRF [DYRK1B_Y273_Q275R] | 0.369 | 0.844 | 0.428 | 0.818 | 1.17 | 1.27 | 0.9 | 0.817 | 0.809 | 0.734 | 1.05 | 1.01 | 1.16 | 0.601 | 0.887 | 0.677
CASQLYPRHKH [DCTN4_Y263] | 0.916 | 0.975 | 0.865 | 0.639 | 0.928 | 0.807 | 0.43 | 1.02 | 0.38 | 0.44 | 0.483 | 0.428 | 0.405 | 0.464 | 0.673 | 0.533

Sequence | SH2 binding enrichment (c-Src SH2) | SH2 binding enrichment (Grb2 SH2) | SH2 binding enrichment (SHP2-C SH2) | phosphorylation enrichment (FGFR3) | phosphorylation enrichment (Fes) | phosphorylation enrichment (c-Abl (mouse)) | phosphorylation enrichment (EPHB1) | phosphorylation enrichment (Jak2) | phosphorylation enrichment (Fyn) | phosphorylation enrichment (Fer (mouse)) | phosphorylation enrichment (Hck) | phosphorylation enrichment (MERTK) | phosphorylation enrichment (c-Src) | phosphorylation enrichment (EPHB2) | phosphorylation enrichment (AncSZ) | phosphorylation enrichment (FGFR1)
LSGVIYVILGK [PMP22_Y153_R157G] | 0.653 | 0.746 | 0.801 | 0.977 | 2.88 | 1.87 | 0.93 | 2.72 | 0.828 | 0.754 | 0.885 | 0.771 | 0.796 | 0.588 | 1.73 | 0.867
KVGNEYVTKGQ [MYH7_Y410] | 0.471 | 0.89 | 0.676 | 0.422 | 0.578 | 0.469 | 0.303 | 0.471 | 0.3 | 0.269 | 0.334 | 0.332 | 0.339 | 0.495 | 0.492 | 0.393
VIERSYTSADG [DHCR7_Y382_C380R] | 1.39 | 0.852 | 0.564 | 0.466 | 0.692 | 0.565 | 0.388 | 0.578 | 0.496 | 0.454 | 0.392 | 0.395 | 0.419 | 0.478 | 0.571 | 0.414
SGGLDYGMVGG [TNRC6B_Y1382_M1380L] | 0.489 | 0.775 | 0.724 | 0.537 | 0.722 | 0.523 | 0.527 | 0.636 | 2.21 | 0.476 | 0.76 | 0.43 | 1.88 | 0.973 | 0.765 | 0.446
TDKLFYIYTSG [SLC27A4_Y243] | 0.443 | 0.677 | 1.75 | 0.811 | 1.94 | 1.18 | 0.701 | 1.48 | 0.48 | 0.517 | 0.522 | 0.589 | 0.542 | 0.682 | 1.5 | 0.565
ECKLLYSQKEG [PTPN11_Y263_R265Q] | 0.554 | 0.786 | 0.667 | 0.705 | 1.08 | 0.724 | 0.643 | 0.986 | 0.489 | 0.607 | 0.682 | 0.494 | 0.541 | 0.759 | 0.865 | 0.532
FKELVYETVRV [FSHB_Y76] | 0.77 | 0.751 | 0.961 | 1.57 | 6.92 | 18 | 10.2 | 0.894 | 11.2 | 18.5 | 12.4 | 9.94 | 8.98 | 9.8 | 2.11 | 3.22
NNIDFYKNTTN [FGFR2_Y657_K659N_YF] | 0.434 | 0.804 | 0.611 | 0.609 | 0.792 | 0.57 | 0.484 | 0.574 | 0.472 | 0.448 | 0.553 | 0.352 | 0.369 | 0.389 | 0.746 | 0.442
KYVKMYDNHQL [MYO9A_Y203] | 1.3 | 0.808 | 0.76 | 0.432 | 0.726 | 0.696 | 0.481 | 0.51 | 0.46 | 0.441 | 0.489 | 0.544 | 0.418 | 0.448 | 0.552 | 0.557
RTVPLYESPRK [DDB1_Y718] | 0.57 | 0.898 | 1.01 | 0.577 | 1.77 | 26 | 20.7 | 0.833 | 3.13 | 16 | 10.5 | 7.82 | 3.79 | 26.6 | 1.31 | 0.374
PEADKYCLTFA [FGG_Y300_R301C_YF] | 0.498 | 0.757 | 0.606 | 1.21 | 1.96 | 1.32 | 0.685 | 1.71 | 0.76 | 0.72 | 1.5 | 0.758 | 0.683 | 0.7 | 1.33 | 0.664
DCLASYLDKVR [KRT10_Y160_R156C] | 0.55 | 0.932 | 0.711 | 0.659 | 0.953 | 0.706 | 0.55 | 0.842 | 0.422 | 0.402 | 0.452 | 0.4 | 0.419 | 0.659 | 0.886 | 0.56
DLFRLYICVKE [ARID1B_Y1091_V1092I] | 0.384 | 0.744 | 0.521 | 1 | 1.61 | 0.997 | 0.741 | 1.45 | 0.456 | 0.591 | 0.572 | 0.391 | 0.499 | 0.715 | 1.19 | 0.471
PEFVVYKPQME [CCRL2_Y170] | 0.635 | 1.02 | 0.686 | 1.08 | 1.82 | 1.42 | 1.12 | 1.82 | 0.814 | 0.898 | 0.883 | 0.972 | 0.783 | 0.843 | 1.7 | 0.673
NACGLYHTMNG [GATA5_Y216_K218T] | 4.06 | 0.849 | 0.589 | 1.79 | 0.95 | 0.746 | 0.934 | 0.956 | 0.865 | 0.643 | 2.21 | 3.18 | 3.06 | 0.849 | 0.959 | 2.47
LNPLVYTLRNA [OR4C12_Y285_V283L] | 1.02 | 1.22 | 0.893 | 1.04 | 1.51 | 1.19 | 0.712 | 1.1 | 2.22 | 0.76 | 1.81 | 1.21 | 3.54 | 1.28 | 1.05 | 1.01
